Measurements reported in patent publication US20050176123A1, “Protease inhibitor” (Morinaga Milk Industry Co., Ltd., priority 2002, published 2005).

T1: papain (Carica papaya, UniProt P00784)
T1 construct: purchased Wako Pure Chemical Industries, Ltd
T1 sequence (P00784 134-345): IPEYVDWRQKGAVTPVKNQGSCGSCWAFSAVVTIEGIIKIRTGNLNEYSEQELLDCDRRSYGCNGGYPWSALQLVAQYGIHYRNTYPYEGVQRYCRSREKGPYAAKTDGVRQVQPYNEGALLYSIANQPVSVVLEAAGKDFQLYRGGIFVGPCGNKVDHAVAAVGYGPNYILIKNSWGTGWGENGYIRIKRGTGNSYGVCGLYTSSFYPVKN

B1: bovine lactoferrin: commercially available bovine lactoferrin (Morinaga Milk Industry), 78 kDa, SEQ ID No. 2 (protein, listed as Bos taurus)
chain: MKLFVPALLSLGALGLCLAAPRKNVRWCTISQPEWFKCRRWQWRMKKLGAPSITCVRRAFALECIRAIAEKKADAVTLDGGMVFEAGRDPYKLRPVAAEIYGTKESPQTHYYAVAVVKKGSNFQLDQLQGRKSCHTGLGRSAGWIIPMGILRPYLSWTESLEPLQGAVAKFFSASCVPCIDRQAYPNLCQLCKGEGENQCACSSREPYFGYSGAFKCLQDGAGDVAFVKETTVFENLPEKADRDQYELLCLNNSRAPVDAFKECHLAQVPSHAVVARSVDGKEDLIWKLLSKAQEKFGKNKSRSFQLFGSPPGQRDLLFKDSALGFLRIPSKVDSALYLGSRYLTTLKNLRETAEEVKARYTRVVWCAVGPEEQKKCQQWSQQSGQNVTCATASTTDDCIVLVLKGEADALNLDGGYIYTAGKCGLVPVLAENRKSSKHSSLDCVLRPTEGYLAVAVVKKANEGLTWNSLKDKKSCHTAVDRTAGWNIPMGLIVNQTGSCAFDEFFSQSCAPGADPKSRLCALCAGDDQGLDKCVPNSKEKYYGYTGAFRCLAEDVGDVAFVKNDTVWENTNGESTADWAKNLNREDFRLLCLDGTRKPVTEAQSCHLAVAPNHAVVSRSDRAAHVKQVLLHQQALFGKNGKNCPDKFCLFKSETKNLLFNDNTECLAKLGGRPTYEEYLGTEYVTAIANLKKCSTSPLLEACAFLTR
modifications: sig_peptide (1)...(19) Lactoferrin
B2: transferrin: commercially available bovine transferrin (Nihon Pharmaceutical Co., Ltd.), SEQ ID No. 4 (protein, listed as Bos taurus)
chain: MRPAVRALLACAVLGLCLADPERTVRWCTISTHEANKCASFRENVLRILESGPFVSCVKKTSHMDCIKAISNNEADAVTLDGGLVYEAGLKPNNLKPVVAEFHGTKDNPQTHYYAVAVVKKDTDFKLNELRGKKSCHTGLGRSAGWNIPMAKLYKELPDPQESIQRAAANFFSASCVPCADQSSFPKLCQLCAGKGTDKCACSNHEPYFGYSGAFKCLMEGAGDVAFVKHSTVFDNLPNPEDRKNYELLCGDNTRKSVDDYQECYLAMVPSHAVVARTVGGKEDVIWELLNHAQEHFGKDKPDNFQLFQSPHGKDLLFKDSADGFLKIPSKMDFELYLGYEYVTALQNLRESKPPDSSKDECMVKWCAIGHQERTKCDRWSGFSGGAIECETAENTEECIAKIMKGEADAMSLDGGYLYIAGKCGLVPVLAENYKTEGESCKNTPEKGYLAVAVVKTSDANINWNNLKDKKSCHTAVDRTAGWNIPMGLLYSKINNCKFDEFFSAGCAPGSPRNSSLCALCIGSEKGTGKECVPNSNERYYGYTGAFRCLVEKGDVAFVKDQTVIQNTDGNNNEAWAKNLKKENFEVLCKDGTRKPVTDAENCHLARGPNHAVVSRKDKATCVEKILNKQQDDFGKSVTDCTSNFCLFQSNSKDLLFRDDTKCLASIAKKTYDSYLGDDYVRAMTNLRQCSTSKLLEACTFHKP
modifications: sig_peptide (1)...(19) Transferrin
B3: human lactoferrin: commercially available human lactoferrin (Morinaga Milk Industry), SEQ ID No. 1 (protein, listed as Homo Sapiens)
chain: MKLVFLVLLFLGALGLCLAGRRRRSVQWCAVSQPEATKCFQWQRNMRKVRGPPVSCIKRDSPIQCIQAIAENRADAVTLDGGFIYEAGLAPYKLRPVAAEVYGTERQPRTHYYAVAVVKKGGSFQLNELQGLKSCHTGLRRTAGWNVPIGTLRPFLNWTGPPEPIEAAVARFFSASCVPGADKGQFPNLCRLCAGTGENKCAFSSQEPYFSYSGAFKCLRDGAGDVAFIRESTVFEDLSDEAERDEYELLCPDNTRKPVDKFKDCHLARVPSHAVVARSVNGKEDAIWNLLRQAQEKFGKDKSPKFQLFGSPSGQKDLLFKDSAIGFSRVPPRIDSGLYLGSGYFTAIQNLRKSEEEVAARRARVVWCAVGEQELRKCNQWSGLSEGSVTCSSASTTEDCIALVLKGEADAMSLDGGYVYTAGKCGLVPVLAENYKSQQSSDPDPNCVDRPVEGYLAVAVVRRSDTSLTWNSVKGKKSCHTAVDRTAGWNIPMGLLFNQTGSCKFDEYFSQSCAPGSDPRSNLCALCIGDEQGENKCVPNSNERYYGYTGAFRCLAENAGDVAFVKDVTVLQNTDGNNNEAWAKDLKLADFALLCLDGKRKPVTEARSCHLAMAPNHAVVSRMDKVERLKQVLLHQQAKFGRNGSDCPDKFCLFQSETKNLLFNDNTECLARLHGKTTYEKYLGPQYVAGITNLKKCSTSPLLEACEFLRK
modifications: sig_peptide (1)...(19) Lactoferrin

Experiments:
Type in all cases: biochemical
[1] = target: T1, papain; test: reverse zymography with papain on gelatin-containing SDS-polyacrylamide gel; details: 12.5% SDS-polyacrylamide gel with 0.1% gelatin, papain digestion pH 5.5, 37° C., 10 hours
Text: The inventor used a technique “reverse zymography” as a method of detecting protease inhibitory substance and detected a protease inhibitory substance located on the gel of SDS-polyacrylamide gel electrophoresis. The reverse zymography is based on a technique opposite of the normal zymography, and the basic principle of the reverse zymography is as follows. That is, a sample containing protease inhibitory substance is applied onto SDS-polyacrylamide gel containing gelatin, and electrophoresis is performed, followed by soaking the gel in a protease solution to degrade protein in the gel. Protease activity is inhibited on a portion where an inhibitory substance is present and gelatin of the portion avoids being degraded by protease and is stained with staining solution, which enables detection of inhibitory substance.
Using total milk protein and bovine lactoferrin (manufactured by Morinaga Milk Industry Co., Ltd.) as samples, electrophoresis (hereinafter, SDS-polyacrylamide gel electrophoresis is sometimes abbreviated to SDS-PAGE) was conducted with 12.5% SDS-polyacrylamide gel containing 0.1% of gelatin. After electrophoresis, the gel was washed by immersing it in a 2.5% Triton X-100 solution for 45 minutes, and further washed by repeating three times the operation of immersing the gel in distilled water for 45 minutes. […]

[2] = target: T2, cathepsin B (Homo sapiens, UniProt P07858); test: cysteine protease inhibitory activity (Z-Phe-Arg-MCA fluorescence, method of Barrett et al.); details: pH 5.5, 37° C., 10 minutes
T2 construct: purchased Wako Pure Chemical Industries, Ltd
Procedure: (§1) Inhibitory activities against cysteine proteases including papain, cathepsin B, cathepsin L and cathepsin S (these proteases are available from Wako Pure Chemical Industries, Ltd.) were determined using commercially available bovine lactoferrin (manufactured by Morinaga Milk Industry Co., Ltd.) as a test sample. The inhibitory activity was measured with reference to the method by Barrett et al. (“Methods in Enzymology,” Vol. 80, p 535-561, 1981) as described below. Namely, Z-Phe-Arg-MCA (final concentration of […]: manufactured by Peptide Institute, Inc.) was added as a substrate to 0.1 M acetic acid buffer solution (pH 5.5) in which sample was dissolved at each concentration. Then, cysteine protease (a protease selected from papain, cathepsin B, cathepsin L and cathepsin S in the present test: manufactured by Wako Pure Chemical Industries, Ltd.) solution (final concentration: 15 units/ml) was added, the whole solution was mixed and the reaction was carried out at 37° C. for 10 minutes. Subsequently, fluorescence intensity (excitation wavelength: 370 nm, emission wavelength: 460 nm) of AMC (7-Amino-4-Methyl-Coumarin) released from the digested substrate was measured with a fluorescence spectrometer (manufactured by Hitachi, Ltd.).

[3] = target: T3, cathepsin L (Homo sapiens, UniProt P07711); test: as above; details: pH 5.5, 37° C., 10 minutes
T3 construct: purchased Wako Pure Chemical Industries, Ltd
T3 sequence (P07711 114-333, species assumed): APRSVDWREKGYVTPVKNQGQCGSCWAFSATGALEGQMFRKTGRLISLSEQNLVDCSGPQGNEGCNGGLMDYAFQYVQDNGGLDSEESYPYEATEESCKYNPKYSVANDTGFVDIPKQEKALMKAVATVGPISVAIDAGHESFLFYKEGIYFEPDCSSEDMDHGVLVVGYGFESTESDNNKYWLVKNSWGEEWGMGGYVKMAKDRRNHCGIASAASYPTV
Procedure: as §1

[4] = target: T1, papain; test: as above; details: pH 5.5, 37° C., 10 minutes
Procedure: as §1

[5] = target: T4, cathepsin S (Homo sapiens, UniProt P25774); test: as above; details: pH 5.5, 37° C., 10 minutes
T4 construct: purchased Wako Pure Chemical Industries, Ltd
T4 sequence (P25774 115-331, species assumed): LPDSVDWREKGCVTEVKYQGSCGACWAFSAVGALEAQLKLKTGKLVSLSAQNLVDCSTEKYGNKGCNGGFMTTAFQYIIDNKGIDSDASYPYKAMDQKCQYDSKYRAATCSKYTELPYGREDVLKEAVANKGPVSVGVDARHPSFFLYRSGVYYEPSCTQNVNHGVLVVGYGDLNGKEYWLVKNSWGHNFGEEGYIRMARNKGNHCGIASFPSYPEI
Procedure: as §1

Molecule	band in reverse zymography using papain [1]	inhibition rate at each concentration (%) ([2]; inhibitor 10^−4M)	inhibition rate at each concentration (%) ([3]; inhibitor 10^−4M)	inhibition of cysteine protease activity ([4]; inhibitor 10^−3 M)	inhibition rate at each concentration (%) ([2]; inhibitor 10^−5M)	inhibition rate at each concentration (%) ([5]; inhibitor 10^−4M)	inhibition rate at each concentration (%) ([5]; inhibitor 10^−5M)	inhibition rate at each concentration (%) ([3]; inhibitor 10^−6M)	inhibition rate at each concentration (%) ([4]; inhibitor 10^−6M)
B1	positive band								
B2		more than 30%	more than 30%	completely inhibited					
B3		almost completely inhibited			more than 80%	almost completely inhibited	more than 80%	completely inhibited	completely inhibited
